One substance from article PMC11532958 can be followed below.

Data set [1] can be described thus: domain-selective surface biotinylation of polarized cells. The settings on record: glycan lost; control: wild type.
Data set [2] can be described thus: cell surface biotinylation, Western blot quantitation. As to conditions: glycan lost; control: wild type. Background: Immunoblotting shows a protein as a band on a membrane.

For “voltage-gated sodium channel β2 subunit: N42,66,74Q”, the “other: apical versus basolateral polarity of surface protein” value in data set [1] was “no change”. For the same substance, the localisation_or_trafficking entry in data set [2] was “decreases”.
